Measured values reported in patent US6610500.

What was measured:
[1] = molecular target: human p140 TrkA receptor (human) (UniProt P04629); assay: cell-based or functional assay
[2] = molecular target: human p140 TrkA receptor (human) (UniProt P04629); assay: FACScan 5C3 surface staining of 4-3.6 cells after NGF treatment at 4° C., relative to vehicle (100%); competitor mAb 5C3
[3] = molecular target: human p140 TrkA receptor (human) (UniProt P04629); assay: 125I[NGF] binding to E25 cells blocked with 5 µM unlabeled NGF (defined as background)
[4] = molecular target: human p140 TrkA receptor (human) (UniProt P04629); assay: FACScan 5C3 surface staining of 4-3.6 cells after NGF treatment at 37° C., relative to vehicle (100%); competitor mAb 5C3
[5] = molecular target: human p140 TrkA receptor (human) (UniProt P04629); assay: Scatchard analysis of 125I[5C3] binding to E25 cells
[6] = molecular target: human p140 TrkA receptor (human) (UniProt P04629); assay: Scatchard analysis of 125I[5C3] binding to 4-3.6 cells
[7] = molecular target: human p140 TrkA receptor (human) (UniProt P04629); assay: Scatchard analysis of 125I[5C3] binding to 4-3.6 cells, 4° C.
[8] = molecular target: human p140 TrkA receptor (human) (UniProt P04629); assay: 125I[NGF] binding to E25 cells after preincubation with excess unlabeled mAb 5C3
[9] = molecular target: human p140 TrkA receptor (human) (UniProt P04629); assay: Scatchard analysis of 125I[5C3] binding to E25 cells, 4° C.
[10] = molecular target: human p140 TrkA receptor (human) (UniProt P04629); assay: 125I[NGF] (~1 nM) binding to E25 cells after preincubation with excess unlabeled mAb 5C3; competitor unlabeled mAb 5C3
[11] = molecular target: human p140 TrkA receptor (human) (UniProt P04629); assay: summary of the 125I[5C3] binding studies

Chain of UniProt P04629 (P04629 33-796): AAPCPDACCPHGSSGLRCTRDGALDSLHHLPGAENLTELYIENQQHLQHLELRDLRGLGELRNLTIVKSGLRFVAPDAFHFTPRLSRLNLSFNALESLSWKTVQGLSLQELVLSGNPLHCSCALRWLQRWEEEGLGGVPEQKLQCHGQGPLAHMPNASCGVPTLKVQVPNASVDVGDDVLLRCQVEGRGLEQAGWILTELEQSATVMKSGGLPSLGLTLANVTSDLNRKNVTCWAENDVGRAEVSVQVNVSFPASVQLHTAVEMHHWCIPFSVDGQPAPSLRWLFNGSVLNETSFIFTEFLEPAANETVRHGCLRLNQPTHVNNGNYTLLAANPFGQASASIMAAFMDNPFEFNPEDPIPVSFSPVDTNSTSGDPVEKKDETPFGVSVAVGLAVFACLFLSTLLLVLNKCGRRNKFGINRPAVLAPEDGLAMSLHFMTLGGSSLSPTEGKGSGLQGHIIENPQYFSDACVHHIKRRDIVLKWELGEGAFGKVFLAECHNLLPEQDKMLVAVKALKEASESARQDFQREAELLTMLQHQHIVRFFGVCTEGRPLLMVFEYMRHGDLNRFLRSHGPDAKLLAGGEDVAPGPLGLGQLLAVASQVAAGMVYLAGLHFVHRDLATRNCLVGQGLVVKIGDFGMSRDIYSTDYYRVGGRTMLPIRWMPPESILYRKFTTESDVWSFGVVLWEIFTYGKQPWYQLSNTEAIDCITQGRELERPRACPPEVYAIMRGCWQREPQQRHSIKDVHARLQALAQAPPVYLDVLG

| FOLD INCREASE IN FOCI with respect to mIgG treated cells [1] [fold] | TYPICAL CELLS/FOCI (E25 cells in soft agar) [1] [cells/foci] | fold increase in PY of TrkA with respect to untreated cells (4-3.6 cells) [1] [fold] | fold increase in PY of TrkA with respect to untreated cells (E25 cells) [1] [fold] | % 5C3 STAINING [2] [%] | % NGF BINDING [3] [%] | % 5C3 STAINING [4] [%] | 5C3 binding sites/cell [5] [sites/cell] | % 5C3 STAINING after 5C3 (0.01 µg/ml) treatment at 4° C. (receptor internalization, 4-3.6 cells) [1] [%] | % 5C3 STAINING after 5C3 (0.01 µg/ml) treatment at 37° C. (receptor internalization, 4-3.6 cells) [1] [%] | 5C3 binding sites/cell [6] [sites/cell] | Kd [7] [nM] | % inhibition of 125I[NGF] binding [8] [%] | Kd [9] [nM] | % NGF BINDING [10] [%] | Kd [11] [nM] | Substance |
| --- | --- | --- | --- | --- | --- | --- | --- | --- | --- | --- | --- | --- | --- | --- | --- | --- |
| 1.6 | 24 | 3.8 | 6.5 | 83 | 0 | 75 | – | – | – | – | – | – | – | – | – | Nerve Growth Factor (ligand) |
| 1.9 | > 48 | 3.4 | 2.7 | – | – | – | 250000 | 96 | 77 | 200000 | 3 | 60 | 1.6 | 39.3 | 2 | anti-human TrkA monoclonal antibody 5C3 |
